Measurements: article PMC2936869, “Secreted fungal sulfhydryl oxidases: sequence analysis and characterisation of a representative flavin-dependent enzyme from Aspergillus oryzae” (BMC Biochemistry, 2010)

T1: AoSOX1 (Aspergillus oryzae, UniProt Q2UA33)
T1 construct: gene AO090102000564; secreted full-length protein, 384 aa including predicted 19-residue signal peptide (removed); C-terminal His6 tag added but apparently cleaved off by host protease; expressed in Trichoderma reesei; N-glycosylated; MW 43959 by MS
T1 sequence (Q2UA33 20-384): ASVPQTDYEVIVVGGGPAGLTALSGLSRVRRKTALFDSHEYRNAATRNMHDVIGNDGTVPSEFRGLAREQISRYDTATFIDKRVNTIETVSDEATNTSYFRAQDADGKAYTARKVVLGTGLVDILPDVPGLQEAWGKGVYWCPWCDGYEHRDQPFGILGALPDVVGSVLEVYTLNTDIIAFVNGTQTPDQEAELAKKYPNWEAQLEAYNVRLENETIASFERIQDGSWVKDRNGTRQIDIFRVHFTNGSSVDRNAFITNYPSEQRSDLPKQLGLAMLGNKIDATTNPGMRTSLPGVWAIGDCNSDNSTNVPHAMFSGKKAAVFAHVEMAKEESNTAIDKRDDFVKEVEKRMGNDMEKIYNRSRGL


Assays:
AoSOX1 = molecular target: T1, AoSOX1; test: UV/visible absorption; cofactor released by thermal and chemical denaturation; assay type: binding; details: non-covalently bound cofactor; 20 mM Tris-HCl pH 7.0, 25 °C
[1] = substrate: N[C@H](CS)C(=O)O; test: initial rates, Michaelis-Menten (HVA-peroxidase coupled assay, the paper's general assay); assay type: biochemical, Aspergillus oryzae; details: co-substrate O2, general assay in 50 mM potassium phosphate, 0.3 mM EDTA, pH 7.5
Excerpt: (§1) initial rates, Michaelis-Menten (HVA-peroxidase coupled assay, the paper's general assay) on AoSOX1

[2] = substrate: OCCS; test: as above; assay type: biochemical, Aspergillus oryzae; details: co-substrate O2, general assay in 50 mM potassium phosphate, 0.3 mM EDTA, pH 7.5
Excerpt: as §1

[3] = substrate: N[C@@H](CS)C(=O)O; test: as above; assay type: biochemical, Aspergillus oryzae; details: co-substrate O2, general assay in 50 mM potassium phosphate, 0.3 mM EDTA, pH 7.5
Excerpt: as §1

Molecule | UV/visible absorption; cofactor released by thermal and chemical denaturation (AoSOX1) | Km [1] [mM] | Vmax/Km [1] [min⁻¹] | kcat [1] [s⁻¹] | Km [2] [mM] | Vmax/Km [2] [min⁻¹] | Km [3] [mM] | Vmax/Km [3] [min⁻¹]
Cc1cc2nc3c(=O)[nH]c(=O)nc-3n(C[C@H](O)[C@H](O)[C@H](O)COP(=O)(O)OP(=O)(O)OC[C@H]3O[C@@H](n4cnc5c(N)ncnc54)[C@H](O)[C@@H]3O)c2cc1C [FAD] | The cofactor was spectrophotometrically identified to be FAD after the cofactor was released |  |  |  |  |  |  | 
AoSOX1 (Aspergillus oryzae RIB40) (protein, secreted full-length protein, 384 aa including predicted 19-residue signal peptide (removed); C-terminal His6 tag added but apparently cleaved off by host protease; expressed in Trichoderma reesei; N-glycosylated; MW 43959 by MS) ASVPQTDYEVIVVGGGPAGLTALSGLSRVRRKTALFDSHEYRNAATRNMHDVIGNDGTVPSEFRGLAREQISRYDTATFIDKRVNTIETVSDEATNTSYFRAQDADGKAYTARKVVLGTGLVDILPDVPGLQEAWGKGVYWCPWCDGYEHRDQPFGILGALPDVVGSVLEVYTLNTDIIAFVNGTQTPDQEAELAKKYPNWEAQLEAYNVRLENETIASFERIQDGSWVKDRNGTRQIDIFRVHFTNGSSVDRNAFITNYPSEQRSDLPKQLGLAMLGNKIDATTNPGMRTSLPGVWAIGDCNSDNSTNVPHAMFSGKKAAVFAHVEMAKEESNTAIDKRDDFVKEVEKRMGNDMEKIYNRSRGL |  | 1.55 ± 0.03 | 9780 | 5950 | 9.73 ± 0.08 | 13100 | 6.11 ± 0.13 | 21800
